Consider three molecules from US20240025993A1, “CD19 BINDING MOLECULES AND USES THEREOF” (NOVARTIS AG, priority 2020, published 2024).

The test concerns the target CD3-Fc. The experiment in a line: SPR (Biacore T200, 25 C), CD3-Fc captured on anti-hFc CM5 chip, antibody as analyte, 1:1 model.

B1: anti-CD3 antibody designated as CD3hi (antibody, V domains shown)
VH: EVQLVESGGGLVQPGGSLKLSCAASGFTFNTYAMNWVRQASGKGLEWVGRIRSKYNNYATYYADSVKDRFTISRDDSKSTLYLQMNSLKTEDTAVYYCVRHGNFGNSYVSWFAYWGQGTLVTVSS
VL: QAVVTQEPSLTVSPGGTVTLTCRSSTGAVTTSNYANWVQQKPGQAPRGLIGGTNKRAPWTPARFSGSLLGDKAALTLSGAQPEDEAEYFCALWYSNLWVFGGGTKLTVL
In turn, B1 yielded a dissociation constant (Kd) of 16 nM.

B2: anti-CD3 antibody designated as CD3med (antibody, V domains shown)
VH: EVQLVESGGGLVQPGGSLKLSCAASGFTFNTYAMNWVRQASGKGLEWVGRIRSKYNNYATYYADSVKDRFTISRDDSKNTAYLQMNSLKTEDTAVYYCVRHGNFGNSYVSWFAHWGQGTLVTVSS
VL: QAVVTQEPSLTVSPGGTVTLTCGSSTGAVTSSNYANWVQQKPGQAPRGLIGGTNKRAPWTPARFSGSLLGGKAALTLSGAQPEDEAEYYCALWYSNLWVFGGGTKLTVL
Consider B2, for which the Kd is 30 nM.

B3: anti-CD3 antibody designated as CD3lo (antibody, V domains shown)
VH: EVQLVESGGGLVQPGGSLKLSCAASGFTFNTYAMNWVRQASGKGLEWVGRIRSKYNNYATYYADSVKDRFTISRDDSKSTAYLQMNSLKTEDTAVYYCVRHGNFGNSYVSWFAYWGQGTLVTVSS
VL: QAVVTQEPSLTVSPGGTVTLTCRSSTGAVTTSNYANWVQQKPGQAPRGLIGGTNKRAPWTPARFSGSLLGDKAALTLSGAQPEDEAEYFCALWYSNLWVFGGGTKLTVL
The molecule B3 gave a dissociation constant (Kd) of 48 nM.

One may read the Kd as the concentration at which binding is half-saturated. A low value points to higher affinity.
